To fix the notation:
B1: Nanobody 11G9 (VHH)
VHH: EVQLVESGGGLVQPGGSLRLSCAASGGTLDDYVIGWFRQAPGKEREGVSCISSTDGSTYYADSVKGRFTISRDNAKNTVYLQVNSLKPEDTAVYYCAAGMGVLRQWALSKLSYDYWGQGTQVTVSS
notes: llama VHH against CXCL11; not shown: C-terminal c-myc tag and (His)6 tag coded by the vector
B2: Nanobody 16D5 (VHH)
VHH: EVQLVESGGGLVQAGGSLRLSCAASGFTFDDYAIAWFRQAPGKEREVVSCISSSDGSTYYADSVKGRFTISSDNAKNTVFLQMNSLKPEDTAVYYCAAVSNCPRDSDYIPYLHYWWGQGTQVTVSS
notes: llama VHH against CCL2; not shown: C-terminal c-myc tag and (His)6 tag coded by the vector
B3: recombinant human CXCL11/I-TAC (ligand, UniProt O14625 22-94, looked up)
chain: FPMFKRGRCLCIGPGVKAVKVADIEKASIMYPSNNCDKIEVIITLKENKGQRCLNPKSKQARLIIKKVERKNF
modifications: biotinylated in the ELISA; 125I label in the radioligand assays
B4: Nanobody 16C1 (VHH)
VHH: EVQLVESGGGLVQAGGSLRLSCAASGRTFSSYVMGWFRQAPGKEREFVAAIRWSGGSTYYADSVKGRFTISRDNAKNTVYLQMNSLKPEDTAVYYCAADLLGDSDYEPSSGFGSWGQGTQVTVSS
notes: as for B2
B5: Nanobody 10H3 (VHH)
VHH: EVQLVESGGGLVQAGGSLRLSCAASGRTFSTYVMGWFRQAPGKEREFVAGITSSIGVTRYAGSVQDRFTISKDNAKNTVFLQMNSLKPEDTADYYCAARPDYYISINPVAYPYWGQGTQVTVSS
notes: llama VHH against CCL5; purified; not shown: C-terminal c-myc tag and (His)6 tag coded by the vector
B6: Nanobody 12A4 (VHH)
VHH: EVQLVESGGGLVQPGGSLRLSCAASGFTLDDYAIGWFRQAPGKEREGVSCINSNDGNTYYADSVKGRFTISRDNAKSTVYLQMNSLKPDDTAVYYCAAEAMGYCSAYGSFEGYWGQGTQVTVSS
notes: llama VHH against CXCL12; purified; also called 12C1; 12E4; not shown: C-terminal c-myc tag and (His)6 tag coded by the vector
B7: CCL5 (ligand, UniProt P13501 24-91, looked up)
chain: SPYSSDTTPCCFAYIARPLPRAHIKEYFYTSGKCSNPAVVFVTRKNRQVCANPEKKWVREYINSLEMS
modifications: also: 125I label, position not given here
notes: also called RANTES
B8: Nanobody 11A7 (VHH)
VHH: EVQLVESGGGLVQAGGSLRLSCAASGFTFDDYAIGWFRQAPGKEREGVSIISSSDGSTYYADSVKGRFTISSDNAKNTVYLQMNSLKPEDTAVYYCAAGQGWVIATMTSFRAHREYDYWGQGTQVTVSS
notes: llama VHH against CXCL11; also called 11E10; 11E11; not shown: C-terminal c-myc tag and (His)6 tag coded by the vector

Assay [1] concerns the target B3. Nature of the assay: inhibition of 125I-CXCL11 binding to hCXCR3 (HEK293T cells), purified Nanobody.
Assay [2] addresses T1, recombinant human CCL2/MCP1 (human, UniProt P13500 24-99, 125I label in the radioligand assays).
T1 construct: Immunogen and selection antigen was the Mucin stalk Chimera (R&D 979-MC/CF)
Nature of the assay: inhibition of 125I-CCL2 binding to hCCR2 (HEK293T cells), 10x diluted extract.

The target in a further assay is T2, hCXCR3 (human, UniProt P49682 1-368).
T2 construct: whole, on cells
T2 sequence (looked up): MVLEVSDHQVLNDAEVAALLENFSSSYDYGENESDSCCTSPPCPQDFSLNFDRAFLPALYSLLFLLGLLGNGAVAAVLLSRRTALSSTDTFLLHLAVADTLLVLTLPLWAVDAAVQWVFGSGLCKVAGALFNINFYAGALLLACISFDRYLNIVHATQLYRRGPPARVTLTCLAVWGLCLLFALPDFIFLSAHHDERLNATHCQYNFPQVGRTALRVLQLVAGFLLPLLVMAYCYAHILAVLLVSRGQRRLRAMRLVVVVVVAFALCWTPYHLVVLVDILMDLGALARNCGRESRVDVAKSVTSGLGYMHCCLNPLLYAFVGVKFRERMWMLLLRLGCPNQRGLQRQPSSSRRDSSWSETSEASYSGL
Nature of the assay: competition of unlabeled CXCL11 with 125I-CXCL11 on HEK293T cells with hCXCR3.

Assay [3] deals with T1, recombinant human CCL2/MCP1. Nature of the assay: inhibition of 125I-CCL2 binding to hCCR2 (HEK293T cells), purified Nanobody and 10x diluted extract.
The assay “CCL5” concerns the target B7. Nature of the assay: inhibition of 125I-CCL5 binding to hCCR1 (HEK293T cells), purified Nanobody.
In assay [4] the target is T3, recombinant human CCL5/RANTES (Mucin stalk Chimera) (human, UniProt P13501 24-91, biotinylated in the ELISA).
T3 construct: also called mucin-CCL5; not shown: mucin stalk of the chimera (R&D 978-RN/CF); origin, limits and order not described
T3 sequence (looked up): B7 chain
Nature of the assay: ELISA, periplasmic extract on biotinylated mucin-CCL5 on neutravidin, anti-myc detection.

Assay [5] concerns the target T4, recombinant human CXCL12/SDF1alpha (human, UniProt P48061-2 22-89, biotinylated in the ELISA; 125I label in the radioligand assays). Nature of the assay: inhibition of 125I-CXCL12 (57 pM) binding to CXCR4 on HEK293T cells; radioligand preincubated with purified Nanobody; total binding data.
Assay [6] has as its target T4, recombinant human CXCL12/SDF1alpha. Nature of the assay: cell-based or functional assay.
Assay [7] shares this target. Nature of the assay: inhibition of 125I-CXCL12 (57 pM) binding to CXCR4 on HEK293T cells; specific-binding data.
Another assay concerns the target T5, hCCR1 (human, UniProt P32246 1-355).
T5 construct: whole, on cells
T5 sequence (looked up): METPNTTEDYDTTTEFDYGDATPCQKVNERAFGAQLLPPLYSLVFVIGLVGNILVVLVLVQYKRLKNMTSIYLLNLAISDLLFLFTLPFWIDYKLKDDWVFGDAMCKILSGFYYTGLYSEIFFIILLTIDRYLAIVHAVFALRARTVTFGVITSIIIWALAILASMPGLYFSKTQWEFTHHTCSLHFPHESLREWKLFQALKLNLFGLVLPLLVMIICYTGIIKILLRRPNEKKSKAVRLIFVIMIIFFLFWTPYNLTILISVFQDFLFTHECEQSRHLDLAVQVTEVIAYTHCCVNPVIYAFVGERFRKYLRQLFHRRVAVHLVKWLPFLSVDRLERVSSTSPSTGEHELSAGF
Nature of the assay: competition of unlabeled CCL5 with 125I-CCL5 on HEK293T cells with hCCR1.

Assay [8] concerns the target B3. Nature of the assay: inhibition of 125I-CXCL11 binding to hCXCR3 (HEK293T cells), 10x diluted periplasm; ELISA grade at the label.

Consider eight molecules from patent US20100092460A1 (Ablynx, published 2010).

T4 sequence (P48061 22-89 limits assumed): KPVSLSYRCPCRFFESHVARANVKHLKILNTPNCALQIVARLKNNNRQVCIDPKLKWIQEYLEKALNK
T1 sequence (P13500 24-99 limits assumed): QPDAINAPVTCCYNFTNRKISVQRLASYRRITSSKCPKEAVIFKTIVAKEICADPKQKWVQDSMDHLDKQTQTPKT

Regarding B1, the binding result in assay [1] was “binds”. In the case of B2, in assay [2], the binding result was “binds”.

On to B3, for which the binding result with hCXCR3 is “binds”. Turning to B4, the binding result in [3] is given as “binds”. With B5, the binding result (with CCL5; in assay [4]) was “binds” each time. As for B6, the values for the negative logarithm of the IC50 (pIC50) in [5] and in assay [7] were 8.7 and 9.1, respectively. Besides, the “inhibition of CXCL12-induced PLC activation (3H-inositol phosphate accumulation, HEK293T cells with CXCR4 and G-alpha-qi5), pIC50” value in [6] was found to be 7.2. Regarding B7, the binding result in the assay with hCCR1 is “binds”. For B8, in assay [8], the binding result is listed as “binds”.
